Laboratory results: patent publication US20230121248A1

What was measured:
Experiment in all cases: cell-based or functional assay
[1] = target: anti-CD19 chimeric antigen receptor on anti-CD19 CAR-T cells
[2] = target: mock CAR-T cells (CAR-T not able to recognize CD19)
[3] = target: native JAM-A on CAL27 cells (UniProt Q9Y624)
Sequence of UniProt Q9Y624 (Q9Y624 28-299 limits assumed): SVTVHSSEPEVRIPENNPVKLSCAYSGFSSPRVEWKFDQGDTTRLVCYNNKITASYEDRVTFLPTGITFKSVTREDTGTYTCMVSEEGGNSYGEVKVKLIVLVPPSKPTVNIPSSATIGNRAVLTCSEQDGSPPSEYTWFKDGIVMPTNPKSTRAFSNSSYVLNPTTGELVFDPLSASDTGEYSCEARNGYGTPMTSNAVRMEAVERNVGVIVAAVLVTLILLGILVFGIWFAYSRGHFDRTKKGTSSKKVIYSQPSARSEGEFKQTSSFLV

Substance	proliferation (ATP fold of control) of A549 cells 72 h after the anti-CD19 CAR-T killing assay, 1 uM CM19XA [1] [fold]	proliferation (ATP fold of control) of CAL27 cells 72 h after the anti-CD19 CAR-T killing assay, 1 uM CM19XA [1] [fold]	proliferation (ATP fold of control) of A549 cells 72 h after the mock CAR-T killing assay, 1 uM CM19XA [2] [fold]	proliferation (ATP fold of control) of CAL27 cells 72 h after the mock CAR-T killing assay, 1 uM CM19XA [2] [fold]	proliferation of CAL27 cells (ATPlite, ratio to untreated control), 1 uM soluble JAM-A [3]
CM19XA (CD19-GS linker-JAM-A-pHLIP fusion protein with N-terminal 6xHis tag)	0.74	0.72	1.03	1.01	–
soluble JAM-A protein (extracellular domain of JAM-A fused with MBP) (from UniProt Q9Y624 28-238)	–	–	–	–	1.24
